Test results: paper doi:10.1101/2022.10.27.514035, “Membrane curvature-generating proteins crucial for autophagosome formation” (bioRxiv, 2022)

Target: T1, S. cerevisiae Atg40, SBP-tagged (S. cerevisiae, UniProt Q99325 1-256)
T1 construct: Atg40, ERphagy receptor of Saccharomyces cerevisiae; 'SBP-tagged full-length sjRop1, scAtg40': full-length is read as holding for both; also called scAtg40; not shown: SBP, C-terminal, kept
T1 sequence (looked up): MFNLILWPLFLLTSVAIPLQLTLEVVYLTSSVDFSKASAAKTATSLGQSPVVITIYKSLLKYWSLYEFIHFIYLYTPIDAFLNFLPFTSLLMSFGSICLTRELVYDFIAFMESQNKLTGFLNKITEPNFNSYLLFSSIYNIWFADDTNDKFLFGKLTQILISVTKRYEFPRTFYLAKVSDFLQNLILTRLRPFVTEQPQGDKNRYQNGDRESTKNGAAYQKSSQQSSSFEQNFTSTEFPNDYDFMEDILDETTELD
Test: pull-down; SBP-tagged protein held on streptavidin beads, incubated with purified Atg8 for 1 h at 4 °C in 25 mM HEPES/KOH pH 7.4, 150 mM NaCl, 0.05% DDM; eluate on SDS-PAGE, Coomassie blue
Conditions: both partners purified

binding result: binds
B1: S. cerevisiae Atg8, His10-tagged (natural protein, UniProt P38182 1-117, looked up)
chain: MKSTFKSEYPFEKRKAESERIADRFKNRIPVICEKAEKSDIPEIDKRKYLVPADLTVGQFVYVIRKRIMLPPEKAIFIFVNDTLPPTAALMSAIYQEHKDKDGFLYVTYSGENTFGR
notes: Atg8, ubiquitin-like autophagy protein of Saccharomyces cerevisiae; also called scAtg8; source: E. coli, purified (Ni-NTA, SEC on Superdex 75)
